{"source": "patent US20230265151A1", "about": "“GIP/GLP1 CO-AGONIST COMPOUNDS” (priority 2020, published 2023)", "binders": {"B1": {"name": "Y-Aib-EGT-αMeF(2F)-TSD-4Pal-SI-αMeL-LD-Orn-K((γ-Glu)-(2-[2-(2-Amino-ethoxy)-ethoxy]-acetyl)2-CO-(CH2)12-CO2H)AQ-Aib-EFI-(D-Glu)-αMeY-LIEGGK((γ-Glu)-(2-[2-(2-Ami … (peptide)", "peptide": "YXEGTXTSDXSIXLDXKAQXEFIXXLIEGGKSSGAPPPS", "modifications": "Aib2, αMeF(2F)6, 4Pal10, αMeL13, Orn16, Aib20, D-Glu24, αMeY25; acylated K17, K31 (groups as in name); C-terminal amide"}, "B2": {"name": "Y-Aib-EGT-αMeF(2F)-TSD-4Pal-SI-αMeL-LD-Orn-K((γ-Glu)-(2-[2-(2-Amino-ethoxy)-ethoxy]-acetyl)-CO-(CH2)12-CO2H)AQ-Aib-EFI-(D-Glu)-αMeY-LIEGGK((γ-Glu)-(2-[2-(2-Amin … (peptide)", "peptide": "B1 peptide", "modifications": "Aib2, αMeF(2F)6, 4Pal10, αMeL13, Orn16, Aib20, D-Glu24, αMeY25; acylated K17, K31 (groups as in name); C-terminal amide"}, "B3": {"name": "Y-Aib-EGT-αMeF(2F)-TSD-4Pal-SI-αMeL-LD-Orn-K((2-[2-(2-Amino-ethoxy)-ethoxy]-acetyl)-(γ-Glu)-(2-[2-(2-Amino-ethoxy)-ethoxy]-acetyl)-CO-(CH2)12-CO2H)AQ-Aib-EFI-(D … (peptide)", "peptide": "B1 peptide", "modifications": "Aib2, αMeF(2F)6, 4Pal10, αMeL13, Orn16, Aib20, D-Glu24, αMeY25; acylated K17, K31 (groups as in name); C-terminal amide"}, "B4": {"name": "Y-Aib-EGT-αMeF-TSD-4Pal-SI-αMeL-LD-Orn-K((2-[2-(2-Amino-ethoxy)-ethoxy]-acetyl)2-(γ-Glu)-CO-(CH2)12-CO2H)AQ-Aib-EFI-(D-Glu)-αMeY-LIEGGK((2-[2-(2-Amino-ethoxy)-e … (peptide)", "peptide": "B1 peptide", "modifications": "Aib2, αMeF6, 4Pal10, αMeL13, Orn16, Aib20, D-Glu24, αMeY25; acylated K17, K31 (groups as in name); C-terminal amide"}, "B5": {"name": "Y-Aib-EGT-αMeF(2F)-TSD-4Pal-SI-αMeL-LD-Orn-IAQ-Aib-K((2-[2-(2-Amino-ethoxy)-ethoxy]-acetyl)2-(γ-Glu)-CO-(CH2)12-CO2H)FI-(D-Glu)-αMeY-LIK((2-[2-(2-Amino-ethoxy)- … (peptide)", "peptide": "B1 peptide with K17I, E21K, E28K, K31P", "modifications": "Aib2, αMeF(2F)6, 4Pal10, αMeL13, Orn16, Aib20, D-Glu24, αMeY25; acylated K21, K28 (groups as in name); C-terminal amide"}, "B6": {"name": "Y-Aib-EGT-αMeF(2F)-TSD-4Pal-SI-αMeL-LD-Orn-IAQ-Aib-K((2-[2-(2-Amino-ethoxy)-ethoxy]-acetyl)2-(γ-Glu)-CO-(CH2)12-CO2H)FI-(D-Glu)-αMeY-LIEGGPSSGAPPPSK((2-[2-(2-Am … (peptide)", "peptide": "YXEGTXTSDXSIXLDXIAQXKFIXXLIEGGPSSGAPPPSK", "modifications": "Aib2, αMeF(2F)6, 4Pal10, αMeL13, Orn16, Aib20, D-Glu24, αMeY25; acylated K21, K40 (groups as in name); C-terminal amide"}, "B7": {"name": "Y-Aib-EGT-αMeF(2F)-TSD-4Pal-SI-αMeL-LD-Orn-K((2-[2-(2-Amino-ethoxy)-ethoxy]-acetyl)-(y-Glu)-CO-(CH2)12-CO2H)AQ-Aib-K((2-[2-(2-Amino-ethoxy)-ethoxy]-acetyl)-(γ-G … (peptide)", "peptide": "B1 peptide with E21K, K31P", "modifications": "Aib2, αMeF(2F)6, 4Pal10, αMeL13, Orn16, Aib20, D-Glu24, αMeY25; acylated K17, K21 (groups as in name); C-terminal amide"}, "B8": {"name": "Y-Aib-EGT-αMeF(2F)-TSD-4Pal-SI-αMeL-LD-Orn-K((2-[2-(2-Amino-ethoxy)-ethoxy]-acetyl)2-CO-(CH2)12-CO2H)AQ-Aib-K((2-[2-(2-Amino-ethoxy)-ethoxy]-acetyl)2-CO-(CH2)12 … (peptide)", "peptide": "B1 peptide with E21K, K31P", "modifications": "Aib2, αMeF(2F)6, 4Pal10, αMeL13, Orn16, Aib20, D-Glu24, αMeY25; acylated K17, K21 (groups as in name); C-terminal amide"}, "B9": {"name": "Y-Aib-EGT-αMeF(2F)-TSD-4Pal-SI-αMeL-LD-Orn-K((2-[2-(2-Amino-ethoxy)-ethoxy]-acetyl)-(γ-Glu)-CO-(CH2)12-CO2H)AQ-Aib-EFIK((2-[2-(2-Amino-ethoxy)-ethoxy]-acetyl)-( … (peptide)", "peptide": "B1 peptide with X24K, K31P", "modifications": "Aib2, αMeF(2F)6, 4Pal10, αMeL13, Orn16, Aib20, αMeY25; acylated K17, K24 (groups as in name); C-terminal amide"}, "B10": {"name": "Y-Aib-EGT-aMeF(2F)-TSD-4Pal-SI-aMeL-LD-Orn-K((2-[2-(2-Amino-ethoxy)-ethoxy]-acetyl)2-CO-(CH2)12-CO2H)AQ-Aib-EFIK((2-[2-(2-Amino-ethoxy)-ethoxy]-acetyl)2-CO-(CH2 … (peptide)", "peptide": "B1 peptide with X24K, K31P", "modifications": "Aib2, αMeF(2F)6, 4Pal10, αMeL13, Orn16, Aib20, αMeY25; acylated K17, K24 (groups as in name); C-terminal amide"}, "B11": {"name": "Y-Aib-EGT-αMeF(2F)-TSD-4Pal-SI-αMeL-LD-Orn-K((2-[2-(2-Amino-ethoxy)-ethoxy]-acetyl)2-(γ-Glu)-(4-(4-tert-butylphenyl)butanoyl))AQ-Aib-K((2-[2-(2-Amino-ethoxy)-et … (peptide)", "peptide": "B1 peptide with E21K, K31P", "modifications": "Aib2, αMeF(2F)6, 4Pal10, αMeL13, Orn16, Aib20, D-Glu24, αMeY25; acylated K17, K21 (groups as in name); C-terminal amide"}, "B12": {"name": "Example 180 (peptide)", "peptide": "Y[Aib]EGT[αMeF]TSDV[Aib]I[αMeL]LD[Orn]K([AEEA-AEEA-γGlu-C14 diacid])AQ[Aib]EFI[dE][αMeY]LIEGGK([AEEA-AEEA-γGlu-C14 diacid])SSGAPPPS-NH2", "modifications": "N-terminus assumed", "SMILES": "CC[C@H](C)[C@H](NC(=O)[C@H](CC(C)C)NC(=O)[C@](C)(Cc1ccc(O)cc1)NC(=O)[C@@H](CCC(=O)O)NC(=O)[C@@H](NC(=O)[C@H](Cc1ccccc1)NC(=O)[C@H](CCC(=O)O)NC(=O)C(C)(C)NC(=O)[C@H](CCC(N)=O)NC(=O)[C@H](C)NC(=O)[C@H](CCCCNC(=O)COCCOCCNC(=O)COCCOCCNC(=O)CC[C@H](NC(=O)CCCCCCCCCCCCC(=O)O)C(=O)O)NC(=O)[C@H](CCCN)NC(=O)[C@H](CC(=O)O)NC(=O)[C@H](CC(C)C)NC(=O)[C@](C)(CC(C)C)NC(=O)[C@@H](NC(=O)C(C)(C)NC(=O)[C@@H](NC(=O)[C@H](CC(=O)O)NC(=O)[C@H](CO)NC(=O)[C@@H](NC(=O)[C@](C)(Cc1ccccc1)NC(=O)[C@@H](NC(=O)CNC(=O)[C@H](CCC(=O)O)NC(=O)C(C)(C)NC(=O)[C@@H](N)Cc1ccc(O)cc1)[C@@H](C)O)[C@@H](C)O)C(C)C)[C@@H](C)CC)[C@@H](C)CC)C(=O)N[C@@H](CCC(=O)O)C(=O)NCC(=O)NCC(=O)N[C@@H](CCCCNC(=O)COCCOCCNC(=O)COCCOCCNC(=O)CC[C@H](NC(=O)CCCCCCCCCCCCC(=O)O)C(=O)O)C(=O)N[C@@H](CO)C(=O)N[C@@H](CO)C(=O)NCC(=O)N[C@@H](C)C(=O)N1CCC[C@H]1C(=O)N1CCC[C@H]1C(=O)N1CCC[C@H]1C(=O)N[C@@H](CO)C(N)=O"}}, "test_in_all_cases": "cell-based or functional assay", "key": {"human glucagon receptor": {"molecular_target": "human glucagon receptor (human, UniProt P47871 26-477)"}, "[1]": {"molecular_target": "human glucagon-like peptide-1 (GLP-1) receptor (human, UniProt P43220 24-463)"}, "[2]": {"molecular_target": "T1, human glucose-dependent insulinotropic polypeptide (GIP) receptor (human, UniProt P48546 22-466)", "T1 sequence (looked up)": "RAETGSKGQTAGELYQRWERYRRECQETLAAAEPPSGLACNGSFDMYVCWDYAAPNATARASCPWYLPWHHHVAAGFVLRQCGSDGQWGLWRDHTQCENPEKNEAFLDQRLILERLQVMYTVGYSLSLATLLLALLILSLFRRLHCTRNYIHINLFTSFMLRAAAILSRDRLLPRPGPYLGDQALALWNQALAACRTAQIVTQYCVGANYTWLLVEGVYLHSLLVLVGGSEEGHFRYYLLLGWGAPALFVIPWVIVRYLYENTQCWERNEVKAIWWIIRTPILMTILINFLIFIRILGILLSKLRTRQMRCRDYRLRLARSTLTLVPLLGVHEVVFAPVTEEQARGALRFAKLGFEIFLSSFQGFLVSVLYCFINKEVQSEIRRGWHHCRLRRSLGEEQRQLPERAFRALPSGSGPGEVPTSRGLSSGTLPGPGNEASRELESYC"}}, "note": "Changes are numbered by the printed parent chain. *1 amine or outer side, *2 acyl side, *3 side chain or, on linkers, in order; H or OH if unused. Where no end group is shown, it is not given here. Side-chain parts run from the residue outwards. [ ]: non-standard residue; d: D form. The star is where a group is joined. γGlu = O=C(O)[C@H](CCC(=O)[*:2])N[*:1]; C14 diacid = O=C(O)CCCCCCCCCCCCC(=O)*; αMeY = C[C@](N)(Cc1ccc(O)cc1)C(=O)O; αMeF = C[C@](N)(Cc1ccccc1)C(=O)O; αMeL = CC(C)C[C@](C)(N)C(=O)O; Orn = NCCC[C@H](N)C(=O)O; AEEA = NCCOCCOCC(=O)O; Aib = CC(C)(N)C(=O)O"}
{"binder": "B1", "values": [{"measurement": "cAMP EC50 (1.0% HSA)", "setting": "human glucagon receptor", "result": "> 9.95", "unit": "µM"}]}
{"binder": "B2", "values": [{"measurement": "cAMP EC50 (1.0% HSA)", "setting": "human glucagon receptor", "result": "> 9.95", "unit": "µM"}]}
{"binder": "B3", "values": [{"measurement": "cAMP EC50 (1.0% HSA)", "setting": "human glucagon receptor", "result": "> 9.95", "unit": "µM"}]}
{"binder": "B4", "values": [{"measurement": "cAMP EC50 (1.0% HSA)", "setting": "human glucagon receptor", "result": "> 9.95", "unit": "µM"}]}
{"binder": "B5", "values": [{"measurement": "cAMP EC50 (1.0% HSA)", "setting": "human glucagon receptor", "result": "> 9.95", "unit": "µM"}]}
{"binder": "B6", "values": [{"measurement": "cAMP EC50 (1.0% HSA)", "setting": "human glucagon receptor", "result": "> 9.95", "unit": "µM"}]}
{"binder": "B7", "values": [{"measurement": "cAMP EC50 (1.0% HSA)", "setting": "human glucagon receptor", "result": "> 9.95", "unit": "µM"}]}
{"binder": "B8", "values": [{"measurement": "cAMP EC50 (1.0% HSA)", "setting": "human glucagon receptor", "result": "> 9.95", "unit": "µM"}]}
{"binder": "B9", "values": [{"measurement": "cAMP EC50 (1.0% HSA)", "setting": "human glucagon receptor", "result": "> 9.95", "unit": "µM"}]}
{"binder": "B10", "values": [{"measurement": "cAMP EC50 (1.0% HSA)", "setting": "human glucagon receptor", "result": "> 9.95", "unit": "µM"}]}
{"binder": "B11", "values": [{"measurement": "cAMP EC50 (1.0% HSA)", "setting": "human glucagon receptor", "result": "> 9.95", "unit": "µM"}]}
{"binder": "B12", "values": [{"measurement": "cAMP EC50", "setting": "[1]", "result": 0.00026, "unit": "µM"}, {"measurement": "cAMP EC50", "setting": "[2]", "result": 0.000224, "unit": "µM"}, {"measurement": "cAMP Emax", "setting": "[2]", "result": 86.8, "unit": "%"}]}
